Consider one substance from US20190062442A1.

This assay has as its target FLAG-tagged human PrP^c_N1 (recombinant N-terminal fragment of cellular prion protein, 23-111 amino-acids) (human) (UniProt P04156).

Sequence of FLAG-tagged human PrP^c_N1 (recombinant N-terminal fragment of cellular prion protein, 23-111 amino-acids) (human) (P04156 23-111): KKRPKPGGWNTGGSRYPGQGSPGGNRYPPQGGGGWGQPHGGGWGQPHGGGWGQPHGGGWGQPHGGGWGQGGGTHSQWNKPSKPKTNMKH

Consider “anti-CD230 (Prion) antibody 6D11 Mu IgG2a (BioLegend, San Diego, Calif.)”, for which the IC50 (usually the point on the concentration scale where inhibition reaches its midpoint) amounted to 17.6 nM.
